Experimental data from patent publication US20100015685A1, “LACTOBACILLUS N-DEOXYRIBOSYL TRANSFERASES, CORRESPONDING NUCLEOTIDE SEQUENCES AND THEIR USES” (INSTITUT PASTEUR, priority 2001, published 2010).

B1: ptd Lh: N-deoxyribosyltransferase of SEQ ID No. 4 coded by the ptd Lh gene of Lactobacillus helveticus (purine deoxyribosyltransferase) (protein)
chain: MKAVVPTGKIYLGSPFYSDAQRERAAKAKELLAKNLSIAHVFFPFDDGFTDPDEKNPEIGGIRSMVWRDATYQNDLTGISNATCGVFLYDMDQLDDGSAFEIGFMRAMHKPVILVPFTEHPEKEKKMNLMIAQGVTTIIDGNTEFEKLADYNFNECPFNPVRGYGIY
modifications: Lactobacillus helveticus PTD
B2: ntd: N-deoxyribosyltransferase of SEQ ID No. 6 coded by the ntd Lf gene of Lactobacillus fermentum (protein)
chain: LKNTDPVANTKIYLATSFFNEEQRARIPQALAQLEANPTVGVVHQPFDFQYKDARVDSDPAGVFGSLEWQIATYNNDLNAVGTSDVCVALYDMDQIDEGICMEIGMFVALHKPIVLLPFTKKDKSAYEANLMLARGVTTWLEPNDFSPLKDFNFNHPMAQPFPPFKVF
modifications: Lactobacillus fermentum NTD
B3: ntd Lh: N-deoxyribosyltransferase of SEQ ID No. 2 (or SEQ ID No. 14) coded by the ntd Lh gene of Lactobacillus helveticus (protein)
chain: MNKKKTLYFGAGWFNEKQNKAYKEAMAALKENPTVDLENSYVPLENQYKGIRIDEHPEYLHNIEWASATYHNDLVGIKTSDVMLGVYLPEEEDVGLGMELGYALSQGKYILLVIPDEDYGKPINLMSWGVCDNAIKISELKDFDFNKPRYNFYDGAVY
modifications: Lactobacillus helveticus NTD

Assays:
[1] = system: N-deoxyribosyltransferase activity; test: Enzymatic activity of corresponding raw extracts (in vitro); type: biochemical; set-up: key: (+) growth; (−) absence of growth; conditions: for Enzymatic activity of raw extracts, dC + A: substrates deoxycytidine + adenine; for Enzymatic activity of raw extracts, dC + T: substrates deoxycytidine + thymine; for Enzymatic activity of raw extracts, dG + A: substrates deoxyguanosine + adenine
PAK 26 strain = test: Nutritional screening in PAK 26 strain to distinguish deoxyribosyltransferase I and II activities; type: cell-based, Escherichia coli; conditions: plasmid of selected transforming clones; deoxyguanosine and thymine as sources of guanine and thymidine
Source text: Preferably this strain is incapable of growing in the presence of deoxyguanosine as a source of guanine. In preferred manner, it is the PAK 6 strain. • (ii) transfer of exogenous DNA, preferably in the form of an expression vector, into the bacterium, the exogenous DNA being capable of comprising a sequence coding for a deoxyribosyltransferase. • (iii) culture of the bacteria obtained in Stage (ii) on a medium containing deoxyguanosine. • (iv) isolation of the exogenous DNA transferred into the bacteria of Stage (iii) which have developed on the medium containing deoxyguanosine. The present invention also provides a nutritional screening for distinguishing the deoxyribosyltransferase I and II activities, preferably in particular for distinguishing between the ntd and ptd polypeptides according to the invention. This second screening comprises the stages of: • (i) obtaining a bacterial strain such as for example Escherichia coli, auxotrophic for guanine and thymidine. Preferably, this strain is incapable of growing in the presence of guanine and thymidine. In preferred manner, it is the PAK 26 strain (Δ guaBguaA::Δdeo-11 ΔthyA::erm Δ (udp-metE) zif9::Tn10) is auxotrophic for methionine, guanine and thymidine. • (ii) transfer of the exogenous DNA, preferably in the form of an expression vector, into the bacterium, the exogenous DNA being capable of comprising a sequence coding for a deoxyribosyltransferase I or II. • (iii) culture of the bacteria obtained in Stage (ii) on a medium containing deoxyguanosine, then determination of whether the bacteria are growing or not. If the bacteria are growing, then the exogenous DNA codes for a deoxyribosyltransferase II activity which is expressed in said bacterium. If the bacteria are not growing, then the exogenous DNA is capable of coding for a deoxyribosyltransferase I activity. Other characteristics and advantages of the invention are clear from the rest of the description, with examples represented hereafter. […]

PAK 6 strain = test: Growth of the PAK 6 strain on a glucose mineral medium (in vivo nutritional screening); type: cell-based, Escherichia coli; set-up: key: (+) growth; (−) absence of growth; conditions: for Growth of the PAK 6 strain, A: glucose mineral medium with adenine; for Growth of the PAK 6 strain, dG + A: glucose mineral medium with deoxyguanosine + adenine; for Growth of the PAK 6 strain, G: glucose mineral medium with guanine
Source text: A functional screening allowing the production of guanine to be selected was established on E. coli by deleting the two genes of the guaBA operon which controls the conversion of IMP into XMP then into GMP and also those of the deoCABD operon which controls the degradation of deoxynucleosides to give the PAK 6 strain. The E. coli genome specifies an activity allowing the base G to be converted into GMP (guanine phosphoribosyltransferase encoded by the gpt gene), and also an activity allowing the base G to be released from the dR-G deoxynucleoside (purine nucleoside phosphorylase encoded by the deoD gene in the deo operon). The PAK 6 strain thus has a requirement for guanine (G) which cannot be satisfied by the addition of deoxyguanosine (dR-G). The use of deoxyguanosine (dR-G) can however be selected if an N-deoxyribosyltransferase activity is expressed in the PAK6 strain in order to carry out the exchange: dR-G+A<->dR-A+G.
This exchange between two purine bases can be catalyzed by the two enzyme classes.
DNA fragments of a size comprised between 1 and 2 kb obtained by partial digestion (AluI) of L. helveticus CNRZ 32 were ligated in a ColE1 plasmid (of pUC type digested by SmaI and desphosphorylated) and the mixture is used to transform the PAK6 strain. The transforming clones were selected in a glucose mineral medium to which deoxyguanosine (dR-G) and adenine (A) have been added to the final concentration of 0.3 mM.

Row | Molecule | Enzymatic activity of raw extracts, dC + A [1] | Enzymatic activity of raw extracts, dC + T [1] | Enzymatic activity of raw extracts, dG + A [1] | Class of N-deoxyribosyltransferase activity (I or II) (PAK 26 strain) | Growth of the PAK 6 strain, A (PAK 6 strain) | Growth of the PAK 6 strain, dG + A (PAK 6 strain) | Growth of the PAK 6 strain, G (PAK 6 strain)
1 | B1 | − | − | + | Class I N-deoxyribosyltransferase activity | − | + | +
2 | B2 | + | + | + | Class II N-deoxyribosyltransferase activity | − | + | +
3 | B3 | + | + | + | Class II N-deoxyribosyltransferase activity | − | + | +
